7 molecules from patent US6884879 can be followed below.

In experiment [1] the target is T1, VEGF (human, UniProt P15692-4 27-191, limits assumed).
T1 construct: also called human VEGF; biotinylated VEGF
Kind of experiment: competition ELISA: biotinylated VEGF preincubated with F(ab), capture on KDR-IgG. The procedure: (§1) Diluted conditioned medium containing 3 ng/ml of KDR-IgG (Park et al., J. Biol. Chem. 269:25646–[…] (1994)) in blocking buffer were incubated on the plate for 1 h. […] The solutions from the tubes were then transferred to the ELISA plates and incubated for 1 h. […] Titration curves were fit with a four-parameter nonlinear regression curve-fitting program (KaleidaGraph, Synergy Software, Reading Pa.). […] Assays for full-length IgG were the same as for the F(ab)s except that the assay buffer contained 10% human serum.
Background: An ELISA detects its analyte on a solid surface through an enzyme-linked reagent.

Experiment [2] has as its target T1, VEGF. Kind of experiment: competition ELISA (VEGF/KDR-IgG). As to the method: as §1
Experiment [3] concerns the target T2, VEGF121 (human, UniProt P15692-9 27-147).
T2 construct: also called Purified VEGF121
T2 sequence (looked up): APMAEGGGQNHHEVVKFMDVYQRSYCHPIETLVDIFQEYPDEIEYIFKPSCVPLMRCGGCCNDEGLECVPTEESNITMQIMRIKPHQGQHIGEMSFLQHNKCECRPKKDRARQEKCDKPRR
In words: BIAcore SPR, VEGF121 immobilized, Fab in solution. As to the method:
(§2) Binding of humanized A4.6.1 Fab variants was measured by flowing solutions of Fab in PBS/0.05% TWEEN 20™ over the chip at a flow rate of 20 μL/min. Following each binding measurement, residual Fab was stripped from the immobilized ligand by washing with 5 μL of 50 mM aqueous HCl at 3 μL/min. Binding profiles were analyzed by nonlinear regression using a simple monovalent binding model (BIAevaluation software v2.0; Pharmacia).

Experiment [4] deals with T2, VEGF121. In words: BIAcore SPR, VEGF121 immobilized. The procedure:
as §2

In experiment [5] the target is T1, VEGF. Kind of experiment: competition ELISA: biotinylated VEGF preincubated with IgG, capture on KDR-IgG, 10% human serum. The procedure: as §1
[c]murIgG1 is muMAbVEGF A461 purified from ascites.

The target in a further experiment is rhVEGF165 (human, UniProt P15692 27-191, limits assumed). Kind of experiment: cell-based or functional assay.

B1: F(ab)-4 (Fab, V domains shown)
VH: EVQLVESGGGLVQPGGSLRLSCAASGYTFTNYGMNWVRQAPGKGLEWVGWINTYTGEPTYAADFKRRFTISLDTSKNTLYLQMNSLRAEDTAVYYCARYPHYYGSSHWYFDVWGQGTLVTVSS
VL: DIQMTQSPSSLSASVGDRVTITCSASQDISNYLNWYQQKPGKAPKLLIYFTSSLHSGVPSRFSGSGSGTDFTLTISSLQPEDFATYYCQQYSTVPWTFGQGTKVEIK
notes: F(ab)-1 with ArgH71Leu and AsnH73Thr; human CL and CH1
For B1, in the experiment with VEGF [1], the “EC50 F(ab)-X / EC50 chimeric F(ab)” value is over 295 ratio. For the same molecule, in the experiment with VEGF [2], the “fold improvement of binding against F(ab)-1” value is 4 fold.

B2: hu2.10 (Fab, V domains shown)
VH: EVQLVESGGGLVQPGGSLRLSCAASGYTFTNYGMNWIRQAPGKGLEWVGWINTYTGEPTYAADFKRRFTISLDTSASTVYLQMNSLRAEDTAVYYCAKYPHYYGSSHWYFDVWGQGTLVTVSS
VL: DIQMTQSPSSLSASVGDRVTITCSASQDISNYLNWYQQKPGKAPKLLIYFTSSLHSGVPSRFSGSGSGTDYTLTISSLQPEDFATYYCQQYSTVPWTFGQGTKVEIK
notes: Phage-selected consensus clone, tested as soluble Fab; also called consensus clone hu2.10
With B2, the “KD(A4.6.1)/KD(mut) as headed; fold weaker than the A4.6.1 chimera” value in the experiment with VEGF121 [3] was 35 ratio.

B3: F(ab)-3 (Fab, V domains shown)
VH: EIQLVQSGPELKQPGETVRISCKASGYTFTNYGMNWVKQAPGKGLKWMGWINTYTGEPTYAADFKRRFTFSLETSASTAYLQISNLKNDDTATYFCAKYPHYYGSSHWYFDVWGAGTTVTVSS
VL: DIQMTQSPSSLSASVGDRVTITCSASQDISNYLNWYQQKPGKAPKLLIYFTSSLHSGVPSRFSGSGSGTDFTLTISSLQPEDFATYYCQQYSTVPWTFGQGTKVEIK
As for B3, in the experiment with VEGF [1], the “EC50 F(ab)-X / EC50 chimeric F(ab)” value turned out to be 2.6 ratio.

B4: hu2.10V (Fab, V domains shown)
VH: EVQLVESGGGLVQPGGSLRLSCAASGYTFTNYGMNWIRQAPGKGLEWVGWINTYTGEPTYAADFKRRFTISLDTSASTVYLQMNSLRAEDTAVYYCAKYPHYYGSSHWYFDVWGQGTLVTVSS
VL: DIQMTQSPSSLSASVGDRVTITCSASQDISNYLNWYQQKPGKAPKVLIYFTSSLHSGVPSRFSGSGSGTDYTLTISSLQPEDFATYYCQQYSTVPWTFGQGTKVEIK
notes: hu2.10 with Leu to Val at VL 46; soluble Fab
Regarding B4, the “KD(A4.6.1)/KD(mut) as headed; fold weaker than the A4.6.1 chimera” value with VEGF121 [3] is 5.8 ratio. Further, the “fold improvement of KD against hu2.10” value with VEGF121 [4] stood at 6 fold.

B5: chimeric IgG1 (antibody, V domains shown)
VH: EIQLVQSGPELKQPGETVRISCKASGYTFTNYGMNWVKQAPGKGLKWMGWINTYTGEPTYAADFKRRFTFSLETSASTAYLQISNLKNDDTATYFCAKYPHYYGSSHWYFDVWGAGTTVTVSS
VL: DIQMTQTTSSLSASLGDRVIISCSASQDISNYLNWYQQKPDGTVKVLIYFTSSLHSGVPSRFSGSGSGTDYSLTISNLEPEDIATYYCQQYSTVPWTFGGGTKLEIKR
notes: Murine A4.6.1 VL and VH fused to human kappa CL and human IgG1 heavy chain constant domains; also called chIgG1; chlgG1
B5: the “IgG1/chlgG1 (ratio of EC50)” value with VEGF [5] was 1 ratio.

B6: muMAb VEGF A.4.6.1 (antibody, V domains shown)
VH: EIQLVQSGPELKQPGETVRISCKASGYTFTNYGMNWVKQAPGKGLKWMGWINTYTGEPTYAADFKRRFTFSLETSASTAYLQISNLKNDDTATYFCAKYPHYYGSSHWYFDVWGAGTTVTVSS
VL: DIQMTQTTSSLSASLGDRVIISCSASQDISNYLNWYQQKPDGTVKVLIYFTSSLHSGVPSRFSGSGSGTDYSLTISNLEPEDIATYYCQQYSTVPWTFGGGTKLEIKR
notes: Original murine IgG1 purified from ascites; also called murIgG1; murlgG1
Consider B6, for which the “IgG1/chlgG1 (ratio of EC50)” value with VEGF [5] was 0.759 ratio.

B7: Y0313-1 (Fab, V domains shown)
VH: EVQLVESGGGLVQPGGSLRLSCAASGYDFTHYGMNWVRQAPGKGLEWVGWINTYTGEPTYAADFKRRFTFSLDTSKSTAYLQMNSLRAEDTAVYYCAKYPYYYGTSHWYFDVWGQGTL
VL: DIQLTQSPSSLSASVGDRVTITCRANEQLSNYLNWYQQKPGKAPKVLIYFTSSLHSGVPSRFSGSGSGTDFTLTISSLQPEDFATYYCQQYSTVPWTFGQGTKVEIKR
Turning to B7, the “potency in the HuVEC assay against the wild-type Fab (Y0192)” value with rhVEGF165 was 30 fold.
